Target: EGFR Kinase Domain Duplication (EGFR-KDD), eGFP or mCherry fusion (human) (UniProt P00533)
Assay: PIE-FCCS (pulsed interleaved excitation fluorescence cross-correlation spectroscopy); live COS-7 cells co-expressing eGFP and mCherry fusions (1:1 plasmids), peripheral membrane, 37 °C, Opti-MEM; stimulated with 2 μg/mL recombinant human EGF; median fraction correlated (ƒc)

- median cross-correlation value (ƒc): 0.17
Substance: EGFR Kinase Domain Duplication (EGFR-KDD), eGFP or mCherry fusion (from UniProt P00533 25-1038; P00533 688-1210) (receptor)

Source: publication PMC7925532
